Residue numbers refer to the chain shown, from its start.
B1: ChdC (protein)
chain: MSQAAETLDGWYSLHLFYAVDWASLRIVPKDERDALVTEFQSFLENTATVRSSKSGDQAIYNITGQKADLLLWFLRPEMKSLNHIENEFNKLRIADFLIPTYSYVSVIELSNYLAGKSDEDPYENPHIKARLYPELPHSDYICFYPMNKRRNETYNWYMLTMEERQKLMYDHGMIGRKYAGKIKQFITGSVGFDDFEWGVTLFSDDVLQFKKIVYEMRFDETTARYGEFGSFFVGHIINTNEFDQFFAIS
modifications: coproporphyrin III bound to ChdC
B2: CpfC (protein)
chain: MTKKMGLLVMAYGTPYKESDIEPYYTDIRHGKRPSEEELQDLKDRYEFIGGLSPLAGTTDDQADALVSALNKAYADVEFKLYLGLKHISPFIEDAVEQMHNDGITEAITVVLAPHYSSFSVGSYDKRADEEAAKYGIQLTHVKHYYEQPKFIEYWTNKVNETLAQIPEEEHKDTVLVVSAHSLPKGLIEKNNDPYPQELEHTALLIKEQSNIEHIAIGWQSEGNTGTPWLGPDVQDLTRDLYEKHQYKNFIYTPVGFVCEHLEVLYDNDYECKVVCDDIGANYYRPKMPNTHPLFIGAIIDEIKSIF
modifications: coproporphyrin III bound to CpfC
B3: CpfC (protein)
chain: B2 chain

Assays:
[1] = target: T1, ChdC (SaChdC; coproheme decarboxylase) (Staphylococcus aureus, UniProt A6QEP0); experiment: tryptophan fluorescence quenching; type: binding; settings: 50 mM Tris pH 8, 150 mM NaCl, 25 °C; Langmuir-Hill fit
T1 sequence (A6QEP0 1-250): B1 chain

[2] = target: T2, CpfC (coproporphyrin ferrochelatase; HemH) (Staphylococcus aureus, UniProt P64125); experiment: tryptophan fluorescence quenching; type: binding; settings: 50 mM Tris pH 8, 150 mM NaCl, 25 °C
T2 sequence (P64125 1-307): B2 chain with I300V

CpfC = target: B3; experiment: UV-vis titration
ChdC [3] = target: T3, ChdC (Staphylococcus aureus, UniProt Q2FJ56); experiment: UV-vis titration
T3 chain: B1 chain

ChdC [4] = target: T3, ChdC; experiment: UV-vis titration and fluorescence quenching

In the case of `CC1=C(CCC(=O)O)c2cc3nc(cc4[nH]c(cc5[nH]c(cc1n2)c(C)c5CCC(=O)O)c(CCC(=O)O)c4C)C(CCC(=O)O)=C3C` [coproporphyrin], the KD [1] is reported as “ChdC binds coproporphyrin with an affinity that resembles that for coproheme” and the KD [2] is reported as “affinities of CpfC and/or ChdC for coproporphyrin and/or coproheme were measured titrimetrically”.

Work on B1 yielded a Kd (CpfC) of 40 µM.

For B2, the Kd (ChdC [3]) was 80 µM.

Molecule B3 has a Kd (ChdC [4]) of 17 µM.

From paper PMC7160669 (Biochemistry, 2019)
